Assay results taken from IntAct's records for PubMed 36373674.

B1: SMC5-SMC6 complex localization factor protein 2 (Homo sapiens), Q8IX21 (parent)
chain: MTRRCMPARPGFPSSPAPGSSPPRCHLRPGSTAHAAAGKRTESPGDRKQSIIDFFKPASKQDRHMLDSPQKSNIKYGGSRLSITGTEQFERKLSSPKESKPKRVPPEKSPIIEAFMKGVKEHHEDHGIHESRRPCLSLASKYLAKGTNIYVPSSYHLPKEMKSLKKKHRSPERRKSLFIHENNEKNDRDRGKTNADSKKQTTVAEADIFNNSSRSLSSRSSLSRHHPEESPLGAKFQLSLASYCRERELKRLRKEQMEQRINSENSFSEASSLSLKSSIERKYKPRQEQRKQNDIIPGKNNLSNVENGHLSRKRSSSDSWEPTSAGSKQNKFPEKRKRNSVDSDLKSTRESMIPKARESFLEKRPDGPHQKEKFIKHIALKTPGDVLRLEDISKEPSDETDGSSAGLAPSNSGNSGHHSTRNSDQIQVAGTKETKMQKPHLPLSQEKSAIKKASNLQKNKTASSTTKEKETKLPLLSRVPSAGSSLVPLNAKNCALPVSKKDKERSSSKECSGHSTESTKHKEHKAKTNKADSNVSSGKISGGPLRSEYGTPTKSPPAALEVVPCIPSPAAPSDKAPSEGESSGNSNAGSSALKRKLRGDFDSDEESLGYNLDSDEEEETLKSLEEIMALNFNQTPAATGKPPALSKGLRSQSSDYTGHVHPGTYTNTLERLVKEMEDTQRLDELQKQLQEDIRQGRGIKSPIRIGEEDSTDDEDGLLEEHKEFLKKFSVTIDAIPDHHPGEEIFNFLNSGKIFNQYTLDLRDSGFIGQSAVEKLILKSGKTDQIFLTTQGFLTSAYHYVQCPVPVLKWLFRMMSVHTDCIVSVQILSTLMEITIRNDTFSDSPVWPWIPSLSDVAAVFFNMGIDFRSLFPLENLQPDFNEDYLVSETQTTSRGKESEDSSYKPIFSTLPETNILNVVKFLGLCTSIHPEGYQDREIMLLILMLFKMSLEKQLKQIPLVDFQSLLINLMKNIRDWNTKVPELCLGINELSSHPHNLLWLVQLVPNWTSRGRQLRQCLSLVIISKLLDEKHEDVPNASNLQVSVLHRYLVQMKPSDLLKKMVLKKKAEQPDGIIDDSLHLELEKQAYYLTYILLHLVGEVSCSHSFSSGQRKHFVLLCGALEKHVKCDIREDARLFYRTKVKDLVARIHGKWQEIIQNCRPTQGQLHDFWVPDS
partner: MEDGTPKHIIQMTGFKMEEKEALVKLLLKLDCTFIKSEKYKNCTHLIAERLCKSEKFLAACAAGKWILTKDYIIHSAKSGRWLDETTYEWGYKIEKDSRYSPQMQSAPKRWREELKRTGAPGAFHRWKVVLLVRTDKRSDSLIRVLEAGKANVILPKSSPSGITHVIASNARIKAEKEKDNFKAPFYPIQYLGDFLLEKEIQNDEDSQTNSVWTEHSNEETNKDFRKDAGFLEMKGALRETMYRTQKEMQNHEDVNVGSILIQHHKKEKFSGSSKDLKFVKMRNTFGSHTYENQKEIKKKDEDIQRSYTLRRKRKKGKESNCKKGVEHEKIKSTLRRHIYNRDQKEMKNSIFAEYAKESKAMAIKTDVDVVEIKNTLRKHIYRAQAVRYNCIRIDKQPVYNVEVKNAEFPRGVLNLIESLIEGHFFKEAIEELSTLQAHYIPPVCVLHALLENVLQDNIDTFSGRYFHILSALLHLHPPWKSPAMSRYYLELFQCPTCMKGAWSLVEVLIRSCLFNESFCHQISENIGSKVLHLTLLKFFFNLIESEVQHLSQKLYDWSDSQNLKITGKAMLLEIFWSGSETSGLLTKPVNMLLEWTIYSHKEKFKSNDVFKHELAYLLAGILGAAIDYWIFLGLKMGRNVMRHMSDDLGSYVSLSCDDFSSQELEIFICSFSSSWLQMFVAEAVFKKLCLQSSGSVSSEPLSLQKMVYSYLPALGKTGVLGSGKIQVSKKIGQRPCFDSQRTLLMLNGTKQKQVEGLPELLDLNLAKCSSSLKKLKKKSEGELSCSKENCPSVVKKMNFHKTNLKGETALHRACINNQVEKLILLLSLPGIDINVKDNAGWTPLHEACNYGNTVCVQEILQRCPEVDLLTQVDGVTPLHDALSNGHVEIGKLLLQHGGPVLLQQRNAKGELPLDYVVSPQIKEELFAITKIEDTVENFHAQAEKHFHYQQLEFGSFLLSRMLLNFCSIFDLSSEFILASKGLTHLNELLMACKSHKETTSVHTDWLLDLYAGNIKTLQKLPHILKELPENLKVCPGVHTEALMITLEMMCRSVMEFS
B2: SMC5-SMC6 complex localization factor protein 1 (Homo sapiens), Q9BQI6 (parent)
chain: B1 partner
partner: B1 chain

Variants of: B1
Conditions: with slf1_human SLF1, Q9BQI6

Variant | effect of a mutation on the interaction
M831R;I835R | disrupting interaction strength
C820W;I821W | with no effect
P957D;V959D;W1006A | disrupting interaction strength
L775E;F786E;F792E | disrupting interaction strength

Variants of: B2
Conditions: with slf2_human SLF2, Q8IX21

Variant | effect of a mutation on the interaction
F957E;L964E | disrupting interaction strength
A1042D;I1045E;M1049E | disrupting interaction strength
G464D;H468E;A472D;L476E | disrupting interaction strength
